Assay results as given in US20220025069A1.
Where two headings read alike, the source gives them in different places.

Legend:
[1] = molecular target: human HER2, cell-surface-expressed on KPL4 and NCI-N87 cells (human) (UniProt P04626); test: flow cytometry, KPL4 cells, gMFI curve
[2] = molecular target: human 4-1BB (CD137), cell-surface-expressed on Jurkat-hu4-1BB-NFkB-luc2 reporter cell line (human) (UniProt Q07011); test: flow cytometry, Jurkat-hu4-1BB-NFkB-luc2 cells, gMFI curve
[3] = molecular target: human HER2, cell-surface-expressed on KPL4 and NCI-N87 cells (human) (UniProt P04626); test: flow cytometry, NCI-N87 cells, gMFI curve
[4] = molecular target: human 4-1BB (CD137), cell-surface-expressed on Jurkat-hu4-1BB-NFkB-luc2 reporter cell line (human) (UniProt Q07011); test: cell-based or functional assay; parameters: AUC of activation curve, NFκB-luciferase in Jurkat-hu4-1BB-NFκB-luc2, crosslinking by WM-266-4 cells: unit not given beside the values
[5] = molecular target: human 4-1BB (CD137), cell-surface-expressed on Jurkat-hu4-1BB-NFkB-luc2 reporter cell line (human) (UniProt Q07011); test: cell-based or functional assay; parameters: unit not given beside the values
[6] = molecular target: human 4-1BB (CD137), cell-surface-expressed on Jurkat-hu4-1BB-NFkB-luc2 reporter cell line (human) (UniProt Q07011); test: flow cytometry, Jurkat-hu4-1BB-NFkB-luc2 cells, gMFI curve; remark: listed apart in the source
[7] = molecular target: human Fibroblast Activation Protein (FAP), cell-surface-expressed on NIH/3T3-huFAP clone 19 cells (human) (UniProt Q12884); test: flow cytometry, NIH/3T3-huFAP clone 19 cells, gMFI curve

DP47 huIgG1 PG LALA (antibody)
Area under the curve (AUC) of binding curve [1]: 177
Area under the curve (AUC) of binding curve [2]: 87
Area under the curve (AUC) of binding curve [3]: 1130
AUC of activation curve, NFκB-luciferase in Jurkat-hu4-1BB-NFκB-luc2, crosslinking by NIH/3T3-huFAP clone 19 cells [4]: 195
AUC of activation curve, NFκB-luciferase in Jurkat-hu4-1BB-NFκB-luc2, crosslinking by WM-266-4 cells [4]: 191
AUC of activation curve, NFκB-luciferase in Jurkat-hu4-1BB-NFκB-luc2, crosslinking by KPL4 cells [5]: 253
AUC of activation curve, NFκB-luciferase in Jurkat-hu4-1BB-NFκB-luc2, crosslinking by NCI-N87 cells [5]: 127
AUC of activation curve, NFκB-luciferase in Jurkat-hu4-1BB-NFκB-luc2, crosslinking by SK-Br3 cells [5]: 129
Area under the curve (AUC) of binding curve [6]: 101
Area under the curve (AUC) of binding curve [7]: 362
